A short description of this series: yeast display, Sf9 membrane polyspecificity reagent, FACS + sequencing; frameworks hold sequencing errors. The method, boiled down:
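A synthetic nanobody library was expressed on Saccharomyces cerevisiae BJ5465 by galactose induction for 36–48 hours. The library was stained for 1 hour at 4 °C with 10% biotinylated, detergent-solubilized Sf9 membrane reagent and enriched with streptavidin microbeads before FACS. Low and high (top ~1%) gates were set on anti-HA fluorescence for expression and streptavidin fluorescence for reagent binding, and each polyreactivity label reflects the gate of origin.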
For the sequence “QVQLVESGGGLVQAGGSLRLSCAASGITIYYYAMGWYRQAPGTERELVAAISTTVGSTYYADSVKGRFTISRDNAKNTVYLQMNSLKPEDTAVYYCNAYRVYAWIEYNYWGQGTQVTVSS”, the “polyreactivity (PSR sort gate)” value is given as “low polyreactivity”.
The result for “QVQLVESGGGLVQAGGSLPLSCAASGSIFLYNAMGWYRQAPGKERELVAGITFIGGSTYYADSVKGRFTISRDNAKNSVYLQMNSLKPEDTAVYYCNRLGVYWVGTEFDYWGQGTQVTLSS” reads “low polyreactivity”.
The result for “QVQLVESGGDLVQAGGSLRLSCAASGITFVYNAMGWYRQAPGKESELVAGITWSGSSTYYADSVKGRFTISRDNAKNTVYFQMNSLKPEDTAVYYCAAYLYERTTRYRVYLQWKHGYWGQGTQVTVSS” reads “high polyreactivity”; that for “QVQLGESGGGLVQAGGSLRLSCAASGRTFILNAMGWYRQAPGKERELVAAISWSGGSTYYADSVKGRFTISRDNAKNTVYLQMNSLKPEDTAVYYCAAVTYAYLFHTYDYWGQGTQVTVSS”, “low polyreactivity”; that for “QVQLVESGGGLVQAGGSLRLSCAASGIIFSFYAMGWYRQAPGKERELVAAISRSGGSTYYADSVKGRFTISRDNAKNTVYLQMNSLKPEDTAVYYCNADNGASYYYRRYDSWGQGTQVTVSS”, “high polyreactivity”.
For “QVHLVESGGGLVQAGGSLRLSCAASGITFSPYAMGWSRQAPGKERELVAAISSGSSTKYADSVKGRFTISRDNAKNTVYLQMNSLKPEDTAVYYCAARWFDGYAAYGYWGQGTEVTVSS”, the “polyreactivity (PSR sort gate)” value was “high polyreactivity”.
On to “QVQLVESGGGLVQAGGSLRLSCAASGRTFRIYAVGWYRQAPGKERELVATIDSGGSTNYADSVKGRFTISRDNAKNTVYLQMNSLKPVDTAVYYCNAEDKPWYYLAGQAEYDSWGQGTQVTVSS”, for which the “polyreactivity (PSR sort gate)” value was “low polyreactivity”.
The result for “QDQLVESGGGIVQAGGSLRLSCAASGRNFILNAMGLYRQAPGKERELVAAITWSGGGTYYADSVKGRFTISRDNAKNTVYLQMNSLKASDSAVYYCNRPAAVGEEDYWGQGTQVTVSS” reads “low polyreactivity”; that for “QVQLVESGGGLVQAGGSLRLRCAASGSNFNPYAMGWYRQAPGKERELVAAINSRGGSTYYADSVKGRFTISRDNANNTVYLQMNSLKPQDTAVYYCAARTRRRTSAYEYWGQGTQVTVSS”, “high polyreactivity”.
As for “QVQLVESGGGLVQAGGSLRLSCAASGRIFDGYAMGWYRQAPGKEWELVASISDDGGSTYYADSVKGRFTISRDNEQNTVYLQLNSLKPDDTAVYYCAAVYRRRSYSFYYWGHGTQVTVSS”, the “polyreactivity (PSR sort gate)” value is “high polyreactivity”.
The result for “QVQLVESGGGLVQAGGSLRLSCAASGRTFGWYAMGWYRQAPGKERELVAAIRSSGGRTHYADSVKGRFTISRDNAKNTVYLQMNSLKPEDTAVYYCAARYSAAYYWGQGTQVTVSS” reads “high polyreactivity”; that for “QVQLVESGGGLVQAGGSLRLSCAASGRIFGRNTMGWYRKAPGKERELVASIRSGGRTYYADSVKGRFTISRDNAKNTVYLEMNSLKPEDTAVYYCAADNRKSSSSGYDYWGQGTQVTVSS”, “low polyreactivity”.
“QVQLVESGGGLVQAGGSLRLSCAASGSIFLDNAMGWYRQAPGKERELVAAISRRGGTTYYADSVKGRFTISRDNAKNTVYLQMNSLKPEDTAVYYCAARYPGGKYYSYTYNYWGQGTQVTVSS”: the “polyreactivity (PSR sort gate)” value is reported as “high polyreactivity”.
Regarding “QVQLVESVGGLVQAGGSLRLSCAASGSIFYQYAMGWYRQAPGKERELVAAISRSGGSTYYADSVKGRFTISRDIAKNTVYLQMNSLKPEDTAVYYCAADQKSLRMYYWGQGTQVTVSS”, the “polyreactivity (PSR sort gate)” value is recorded as “high polyreactivity”.
On to “QVQLVESGGGLVQAGGSLRLSCAASGFTFNRNAMGWYRQAPGKERELVAAISWSGGSTYYADSVKGRFTISRDNAKYTVYLQMHSLKPEDTAVYYCAQGYRRVYGPFYYWGQGTQVTVSS”, for which the “polyreactivity (PSR sort gate)” value is “low polyreactivity”.
For the sequence “QVQLVESGGGLVQAGGSLRLSCAASGRIFDYNVMGWYRQAPGKERELVADINGSGGGTNYADSVKGRFTISRDNAKNTVYLQINTLKPEDTAVYYCNADSYEYHVPYYDYRYDYCGQGTQVTVSS”, the “polyreactivity (PSR sort gate)” value is given as “low polyreactivity”.
The result for “QVQLQESGGGLVQAGGSLRLSCAASGTIFWLWAMGWYCKAPGKERELVASISSGGTTYHADSVKGRFTISRDNAKNTVYLQMNSLKPEDTAVYYSAAFYVATAKLGYWGQGSQVTVSS” reads “low polyreactivity”.
“QVQLVESGGGLVQAGGSLRLSCAASGSIFDYNAMGWYRQAPGKERELVASIRWSGGRTYYADSVKGRFTISRDNAKNTVYLQMNSLKPEDTAVYYCNRKPQEYVLQGSSNGYDYWGQGTQVTVSS”: the “polyreactivity (PSR sort gate)” value was “low polyreactivity”.
Consider “QVQLVESWGGLVQAGGSLRLSCAASGITFSSNAMGWSRQAPGKERELVAAINSGDSTNYADSVKGRFTISRDNAKNTVYLQMNSLKPEDTAVYDCAKRYRRRFNYWGQGTQVTVSS”, for which the “polyreactivity (PSR sort gate)” value was “high polyreactivity”.
The result for “QDQLVESGGGLVQAGGSLRLSCAASGLTFQSYAMGWYRQAPGKERELVATISNGSSTYYADSVKGRFTISRDNAKNTVYLQMNSLKPEDTAVYYFAKDYYYSRNPLYGLDYWGQGTQVTVSS” reads “low polyreactivity”; that for “QVQLVESGGGLVKAGGSLRLSCAASGRIFWAYAMGWYRQAPGKERELVAAINSGGRTYYADSVKGRFTISRDNAKNTVYLQMNSLKPEDTAVYYCAAAGVYSSDYWGQGTQVTVSS”, “low polyreactivity”; that for “QVQLVESGGGLVQAGGSLRLSSAASGSTFFSYAMGWYRQAPGKERELVAAITRSGGSTYYADSVKGRFTISRDNAKNNVYLHMNSLTPEDTSVYYCAVLSALWRVFTERGYWGQGTQVTVSS”, “high polyreactivity”.
Consider “QVQLVESGGGLVQAGGSLRLSCAASGSTFLFNVMGWYRQAPGKERELVAAITSGASTYYADSVKGRFTISRDNAKNTVYLQMNSLEPEDTAVYYCAVDYSFRYDYVQRYYYWGQGTQVTVSS”, for which the “polyreactivity (PSR sort gate)” value was “high polyreactivity”.
“QVQLVESGGGLVQAGGSLRLSCAASGSTFKYNAMGWSRQAPGKERELVASISRSGGSTYYADSVKGRFTISRDNAKNTVYLQMNSQKPEDTAVYYCNVRRFVHYEYWGQGTQVTVSS”: the “polyreactivity (PSR sort gate)” value was “high polyreactivity”.
For “QVQLVESGGGLVQAGGSLRLSCAASGSIFSDNAMGWYRQAPGKERELVASITNSGSTNYADSVKGRFTISRDNAKNTVYLQMNSLKPEDTAVYYCAFSFLYTYDYWGQGTQVTVSS”, the “polyreactivity (PSR sort gate)” value is on record as “low polyreactivity”.
With “QVQLVESGGGLVQAGGSLRLSCAASGFTFWSYAMGWYRQAPGKERELVAAISSSGDSTYYADSVKGRFTISRDNAKNTVYLQMNSLKPEDTAVYYCAAGTHTDYGRYYYWGQGTQVTVSS”, the “polyreactivity (PSR sort gate)” value is “low polyreactivity”.
Turning to “QVQLVESGGGLVQAGGSLRLSCAASGRIFSGYVMGWYRQPPGKERELVAAISRSGGSTYYADSVKGRFTISRDNAKNTVYLQMNSLKPEDTAVYYCNADWYKRHYDYWGQGTQVTVSS”, the “polyreactivity (PSR sort gate)” value is recorded as “high polyreactivity”.
As for “QVQLVESGGGLVQAGGSLRLSCAASGSTFEFNDMGWYIQAPGKERELVASIRHSDGSTYYADSVKGRFTISRDNAKNTVYLQMNSLKPEDTAVYYCNKAFQWSGGQVSYDYWGQATQVTVSS”, the “polyreactivity (PSR sort gate)” value is listed as “low polyreactivity”.
Take “QVQLVESGGGLVQAGGSLRLSCAASGIIFWLYTMGWYRQAPGKERELVAAITSGGSTYYADSVKGRFTISRDNAKNTVYLQMNSLKPEDTAVYDCAAVPRYRRWKYDYWGQGTQVTVSS”: the “polyreactivity (PSR sort gate)” value is “high polyreactivity”.
“HVQLVESGGGLVQAGGSLRLSCAASGIIFQRNAMGWYRQAPGKERELVAPISYSDGSTYYADSVKGRFTISRDNAKNTVYLQMNSLKPEDTAVYYCAARRFGRLALYFRFDYWGQGTQVTVSS”: the “polyreactivity (PSR sort gate)” value is “low polyreactivity”.
“QVQLVESGGGLVQAGGSLRLSCAASGRIFGYYAMEWNRQAPGKERELVATITFGGGSTYYADSVKGRFTISRDKAKNTVYLQMNSLKPEDTAVSFCAAEGVHYDGDYGTGYDYWGQCTQVTVSS”: the “polyreactivity (PSR sort gate)” value is “low polyreactivity”.
“QVQLVESGGGLVQAGGSLRLSCAASGSTFSSYVMGWYRQAPGKERELVAGITRGGRTYYADSVKGRFTISRDNAKNTVYLQMNSLKPEDTAVYYCNARDGVTTEFDYWGQGTQVTVSS”: the “polyreactivity (PSR sort gate)” value is on record as “low polyreactivity”.
For “QVHLVESGGGLVQAGGSLRLSCAASGRIFKKYAMGWYRQAPGKESELVATISSGGSTYYADSVKGRFTISRDNAKNTVYLQMNSLNPEDTAVYYCARREYVRRDYFVTTYDYWGQGTQVTVSS”, the “polyreactivity (PSR sort gate)” value is reported as “low polyreactivity”.
“QVQLVESGGGLVQAGGSLRLSCDASGRIFLTNAMAWYRQAPGKERELVAAITSGVSTYYADSVKGRFTISRDNAKNTVYLQMNSLKPEDTAVYYCNADTDRYWPYEYDYWGQGTQVTVSS”: the “polyreactivity (PSR sort gate)” value is given as “low polyreactivity”.
On to “QVQLVESGGGLVQAGGSLRLSCAASGRTYYGNAMGWYRQAPGKERELVAAITSGGGSTRYADSVKGRFTISRDNAKNTVYLQMNSLKPEDTAVYYCNATLGNFGYRRYSGHTRYYYWGQGTQVTVSS”, for which the “polyreactivity (PSR sort gate)” value is recorded as “high polyreactivity”.
For “QVQLVESGGGLVQAGGSLRLSCAASGRIFPDNTMGWSRQAPGKERELVAVITYSGGSTYYADSVKGRFTISRDNAKNTVYLQMNSLKPEDTAVYYCAKTLGSQNYDFDYWGQGTQVTVSS”, the “polyreactivity (PSR sort gate)” value is recorded as “low polyreactivity”.
The result for “QVQLVESGGGLVQAGGSLRLSCAASGSIFTPYAMVWYRQAPGQERELVAAITSGGSTYYADSVKGRFTISRDNAKNTVYLQMNSLKPEDTAVYYCARRVWNYLRRSWYDYWGQGTQVTVSS” reads “high polyreactivity”; that for “QVQLVESGGGLVQAGGSLRLSCAASGSTFRGYAMGWYRQEPGKEREFVASISLSGGSTYYADSVKGRFTISRDNAKYTVYLQMNSLKPEDSAVYYCAARARGYGWRGDYWRQGTQVTVSS”, “low polyreactivity”.
As to “QVQLVESGGGLVQAGGSLRLSCAASGRIFKIYAMGWYRQAQGKERELVAAISRGVRTYYADSVKGRFTISRDNAKNTVYLQMNSLKPEDTAVYYCAADLLISPEFYYWGQGTQVTVSS”, the “polyreactivity (PSR sort gate)” value was “high polyreactivity”.
Regarding “QVQLVESGGGLVQAGGSLRLSCAASGITFPYYAMGWYRQAPGKERELVAAISAGGTRTYYADSVKGRFTISRDNAKNTVYLQMNSLKPEDTAVYYCAARVWPIVQNYYWGQGTQVTVSS”, the “polyreactivity (PSR sort gate)” value is reported as “high polyreactivity”.
On to “QVQLGESGGGLVQAGGSLRLSCAASGRIIYTNAMGWYRQAPGKETELVAAINRSGGITYYADSVKGRFTISRDNAKNTVYLQMNSLKPEDTAVYYCAKDYSWASYKHDYWGQGTQVTVSS”, for which the “polyreactivity (PSR sort gate)” value was “low polyreactivity”.

(Values after the nanobody polyreactivity screen of Harvey et al. (2022).)
